One substance from US20040235764A1 can be followed below.

The experiment addresses fibronectin. Put plainly: cell-based or functional assay.

“integrin α3β1 (from UniProt Q62470 33-1053; P09055 21-798) (receptor)” displayed a cell adhesion assay: attached F9 cells counted on fibronectin-coated wells after co-transfection with dsRNA integrin α3; reduction against F9 wild-type and co-transfection controls of 40%.
